# Assay results as given in patent US20040138134A1.
# B1: CNP variant SEQ ID NO:60 (peptide)
# chain: CFGLKLDRIGSMSKLGC
# B2: CNP variant SEQ ID NO:56 (peptide)
# chain: CFGLKLDRIGTMSGLGC
# B3: CNP variant SEQ ID NO:50 (peptide)
# chain: CFGLKLDQIGSMSGLGC
# B4: CNP variant SEQ ID NO:63 (peptide)
# chain: CFGLKLDRIGSMSGAGC
# B5: CNP variant SEQ ID NO:58 (peptide)
# chain: CFGLKLDRIGSMSALGC
# B6: CNP variant SEQ ID NO:52 (peptide)
# chain: CFGLKLDRVGSMSGLGC
# B7: CNP variant SEQ ID NO:55 (peptide)
# chain: CFGLKLDRIGGMSGLGC
# B8: CNP variant SEQ ID NO:62 (peptide)
# chain: CFGLKLDRIGSMSGMGC
# B9: CNP variant SEQ ID NO:54 (peptide)
# chain: CFGLKLDRIGAMSGLGC
# B10: CNP variant SEQ ID NO:69 (peptide)
# chain: CFGLKLDRIGSGSGLGC
# B11: CNP variant SEQ ID NO:67 (peptide)
# chain: CFGLKLDRIGSKSGLGC
# B12: CNP variant SEQ ID NO:53 (peptide)
# chain: CFGLKLDRTGSMSGLGC
# B13: CNP variant SEQ ID NO:51 (peptide)
# chain: CFGLKLDRLGSMSGLGC
# B14: CNP variant SEQ ID NO:65 (peptide)
# chain: CFGLKLDRIGSWSGLGC
# B15: CNP variant SEQ ID NO:64 (peptide)
# chain: CFGLKLDRIGSMSGGGC
# B16: CNP variant SEQ ID NO:57 (peptide)
# chain: CFGLKLDRIGNMSGLGC
# B17: CNP variant SEQ ID NO:66 (peptide)
# chain: CFGLKLDRIGSHSGLGC
# B18: CNP variant SEQ ID NO:68 (peptide)
# chain: CFGLKLDRIGSSSGLGC
# B19: CNP variant SEQ ID NO:61 (peptide)
# chain: CFGLKLDRIGSMSGQGC
# B20: CNP variant SEQ ID NO:59 (peptide)
# chain: CFGLKLDRIGSMSLLGC
# B21: CNP variant SEQ ID NO:13 (peptide)
# chain: CHFGLKLDRIGAQSC
# B22: CNP variant SEQ ID NO:15 (peptide)
# chain: CFGLKLDRIGAQSC
# B23: CNP 1-22 (native human CNP, 22-mer) (peptide)
# chain: GLSKGCFGLKLDRIGSMSGLGC
# B24: CNP variant SEQ ID NO:16 (peptide)
# chain: CFGLKLDRIGSMC
# B25: CNP variant SEQ ID NO:14 (peptide)
# chain: CFGLKLDRIGSMSC
# Target: natriuretic peptide receptor on C3H10T1/2 cells
# Test: cell-based or functional assay
row,"% relative binding (cGMP, Biotrak EIA, peptide at 10^-6 M)",Binder
1,49.2%,B1
2,74.1%,B2
3,12%,B3
4,-1.11%,B4
5,53.6%,B5
6,27.1%,B6
7,27.8%,B7
8,51.3%,B8
9,54.5%,B9
10,62.1%,B10
11,66.9%,B11
12,-1.95%,B12
13,14.2%,B13
14,66.5%,B14
15,-10.1%,B15
16,27.4%,B16
17,66.2%,B17
18,62.5%,B18
19,-3.47%,B19
20,15.3%,B20

# Target: natriuretic peptide receptor on C3H10T1/2 cells
# Test: cell-based or functional assay
# Remark: another data set of the same source
row,"% relative binding (cGMP, Biotrak EIA, peptide at 10^-6 M)",Binder
1,26.5%,B21
2,20.6%,B22
3,100%,B23
4,17.3%,B24
5,29.9%,B25
